These results are taken from publication PMC11382572, “Structural and kinetic insights into the stereospecific oxidation of R-2,3-dihydroxypropanesulfonate by DHPS-3-dehydrogenase from Cupriavidus pinatubonensis” (Chemical Science, 2024).

Holding throughout (assay type): biochemical, Cupriavidus pinatubonensis
Substrate in the series “purified protein”: O=S(=O)(O)C[C@H](O)CO
Description: purified protein. The settings on record: Zn2+, NAD+.

Substrate in series [1]: O=CC(O)CS(=O)(=O)O
Description: Michaelis-Menten kinetics (apparent KM); LCMS product. The settings on record: Zn2+, NAD+.

Substrate in series [2]: NC(=O)c1ccc[n+]([C@@H]2O[C@H](COP(=O)([O-])OP(=O)(O)OC[C@H]3O[C@@H](n4cnc5c(N)ncnc54)[C@H](O)[C@@H]3O)[C@@H](O)[C@H]2O)c1
The series is described as follows: X-ray crystal structure by soaking (open conformation); Michaelis-Menten kinetics (apparent KM). Conditions: Zn2+ nonproductive complex; nicotinamide group disordered, modelled with zero occupancy; varied: cofactor.

B1: DHPS-3-dehydrogenase (CpHpsN) (Cupriavidus pinatubonensis JMP134) (protein)
chain: MISYLKKAEKTPQTETATAQKVVTEMLAEIQARGKDAVRQYAKQLDGWSGDIVLTPDQIREQTKDVPAGVRADIDFAIRQVTDFALAQRESLKEFSVELHPGVTAGQRVLPVNVVGCYAPAGRYAHIASAYMGVATAKAAGVKTVVACSSPFRGQGIHPHVLYAFQAAGADVIMALGGVQAIASMAYGLFTGKPADVVVGPGNKFVAEAKRSLYGQVGIDVFAGPSEVAVIADETADPAIVASDLVGQAEHGHESPAWLFTTSRDLADRVMALVPELIAKLPPTARDAATAAWRDYGEVILCGTREEVVEISDRYASEHLEVHTADLDWWLANLTCYGSLFLGEETTVAFGDKTSGPNHVLPTKGAARYSGGLSVHKFMKTLTWQQMTREATRQIGQVTARISRLEGMEAHARTADDRMAKYFPNASFEMGTPVEV
As to B1, the Michaelis-Menten constant (Km) in the series “purified protein” is 1300 ± 150 µM; in series [1] it was 360 ± 60 µM; in series [2], 470 ± 100 µM. Also, the kcat/Km is 750 ± 200 M⁻¹ s⁻¹ in “purified protein”, 8600 ± 830 M⁻¹ s⁻¹ in series [1] and 3400 ± 1100 M⁻¹ s⁻¹ in series [2].
